Experimental data as given in patent US20180111996A1 (Merck Sharp & Dohme, published 2018).
Where two headings read alike, the source gives them in different places. Blank lines part the entries; values can stand above or below the binder they belong to.

How the values were obtained:
[1] = target: T1, hPD-1/Fc (R & D Systems) (human, UniProt Q15116 25-167); assay: bio-light interferometry (ForteBio Octet); lower end tied to 09A by Table II
T1 construct: also called human PD-1/Fc; PD-1-Fc fusion protein; not shown: Fc part of the bought fusion protein, not described

[2] = target: T2, cynomolgus macaque PD-1 receptor on stably transfected CHO-K1 cells (cynomolgus macaque, UniProt B0LAJ3 25-288); assay: CELISA on cynomolgus PD-1 transfected CHO-K1 cells
T2 construct: also called cynomolgus PD-1; cynomolgous PD-1

[3] = target: T3, human PD-1 (hPD-1) receptor expressed on cells (human, UniProt Q15116 25-288); assay: FACS, blockade of hPD-L1/Fc binding to CHO cells expressing human PD-1
T3 construct: whole, on cells; also called hPD-1/CHO; CHO-hPD1

[4] = target: T4, mouse PD-1 receptor on stably transfected CHO-K1 cells (mouse, UniProt Q02242 25-288); assay: CELISA and other assays on mouse PD-1 transfected CHO-K1 cells
T4 construct: whole, on cells
T4 sequence (looked up): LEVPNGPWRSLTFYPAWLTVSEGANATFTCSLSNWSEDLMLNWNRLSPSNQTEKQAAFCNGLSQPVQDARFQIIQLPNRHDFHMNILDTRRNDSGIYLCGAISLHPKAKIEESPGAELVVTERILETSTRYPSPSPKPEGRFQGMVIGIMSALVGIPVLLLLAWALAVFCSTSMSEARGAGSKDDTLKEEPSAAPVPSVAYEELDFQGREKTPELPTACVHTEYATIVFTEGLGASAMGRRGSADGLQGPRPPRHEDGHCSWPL

[5] = target: T3, human PD-1 (hPD-1) receptor expressed …; assay: FMAT, blockade of labeled hPD-L2/Fc binding to CHO-hPD-1 cells
[6] = target: T3, human PD-1 (hPD-1) receptor expressed …; assay: FMAT competition on CHO-hPD-1 cells; blocked ligand: fluorescently labelled hPD-L2/Fc at a constant concentration
[7] = target: T1, hPD-1/Fc (R & D Systems); assay: protein ELISA, hPD-1/Fc immobilized
[8] = target: T3, human PD-1 (hPD-1) receptor expressed …; assay: CELISA on CHO cells expressing human PD-1, 450/620 nm
[9] = target: T3, human PD-1 (hPD-1) receptor expressed …; assay: FMAT, blockade of labeled hPD-L1/Fc binding to CHO-hPD-1 cells
[10] = target: T3, human PD-1 (hPD-1) receptor expressed …; assay: FACS, blockade of hPD-L1/Fc binding to CHO cells expressing human PD-1; remark: listed apart in the source
[11] = target: T3, human PD-1 (hPD-1) receptor expressed …; assay: FMAT competition on CHO-hPD-1 cells; blocked ligand: fluorescently labelled hPD-L1/Fc at a constant concentration
[12] = target: T1, hPD-1/Fc (R & D Systems); assay: bio-light interferometry (ForteBio Octet), PD-1/Fc on biosensor
[13] = target: T3, human PD-1 (hPD-1) receptor expressed …; assay: CELISA on CHO-hPD-1 cells
[14] = target: T3, human PD-1 (hPD-1) receptor expressed …; assay: cell-based or functional assay
[15] = target: T2, cynomolgus macaque PD-1 receptor on …; assay: inhibition of ligand (PD-L1, PD-L2) binding to cynomolgous PD-1
[16] = target: cynomolgous PD-1 (form in the kinetic assay not stated) (cynomolgus macaque); assay: kinetic analysis, format for cynomolgus PD-1 not stated
[17] = target: T3, human PD-1 (hPD-1) receptor expressed …; assay: FMAT, blockade of hPD-L1/Fc binding to CHO-hPD-1 cells
[18] = target: T1, hPD-1/Fc (R & D Systems); assay: protein ELISA, hPD-1/Fc immobilized; remark: listed apart in the source
[19] = target: T1, hPD-1/Fc (R & D Systems); assay: bio-light interferometry (ForteBio Octet), PD-1/Fc on biosensor; remark: listed apart in the source
[20] = target: T3, human PD-1 (hPD-1) receptor expressed …; assay: CELISA on CHO-hPD-1 cells; remark: listed apart in the source
[21] = target: T3, human PD-1 (hPD-1) receptor expressed …; assay: FMAT, blockade of hPD-L2/Fc binding to CHO-hPD-1 cells

T1 sequence (Q15116 25-167 limits assumed): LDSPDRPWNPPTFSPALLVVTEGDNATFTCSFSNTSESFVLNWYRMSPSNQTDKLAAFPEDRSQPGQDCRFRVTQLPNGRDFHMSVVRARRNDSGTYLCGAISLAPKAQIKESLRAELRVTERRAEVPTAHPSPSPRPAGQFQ
T3 sequence (Q15116 25-288): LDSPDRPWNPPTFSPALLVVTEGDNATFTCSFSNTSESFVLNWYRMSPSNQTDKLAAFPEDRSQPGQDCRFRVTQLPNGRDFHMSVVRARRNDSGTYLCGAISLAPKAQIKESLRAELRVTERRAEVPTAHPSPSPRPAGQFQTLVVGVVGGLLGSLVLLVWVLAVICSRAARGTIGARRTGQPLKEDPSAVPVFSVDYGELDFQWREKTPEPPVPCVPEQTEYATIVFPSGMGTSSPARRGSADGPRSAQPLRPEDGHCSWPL
T2 sequence (B0LAJ3 entry or part of it limits assumed): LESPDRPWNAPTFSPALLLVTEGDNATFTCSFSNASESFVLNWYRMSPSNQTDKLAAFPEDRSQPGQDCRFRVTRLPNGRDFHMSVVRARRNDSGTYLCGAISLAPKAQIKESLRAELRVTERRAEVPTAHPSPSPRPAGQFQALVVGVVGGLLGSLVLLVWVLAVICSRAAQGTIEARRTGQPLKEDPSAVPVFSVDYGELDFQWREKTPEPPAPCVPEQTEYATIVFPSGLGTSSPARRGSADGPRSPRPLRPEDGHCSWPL

B2: hPD-1.08A (antibody, V domains shown)
VH: QVQLQQPGAELVKPGASVKLSCKASGYTFTSYYLYWMKQRPGQGLEWIGGVNPSNGGTNFSEKFKSKATLTVDKSSSTAYMQLSSLTSEDSAVYYCTRRDSNYDGGFDYWGQGTTLTVSS
VL: DIVLTQSPTSLAVSLGQRATISCRASKSVSTSGFSYLHWYQQKPGQPPKLLIFLASNLESGVPARFSGSGSGTDFTLNIHPVEEEDAATYYCQHSWELPLTFGAGTKLELK
- binding result [2]: binds
- IC50 [3]: 0.0009 nM
- binding result [4]: no binding
- IC50 [5]: 0.0021 nM
- IC50 (read off the curve) [6]: ~2 nM
- EC50 [7]: 0.076 nM
- EC50 (read off the curve) [8]: ~0.08 nM
- IC50 [9]: 0.00073 nM
- IC50 [10]: < 1 nM
- IC50 (read off the curve) [11]: ~0.7 nM
- Kd [12]: 0.0241 nM
- koff [12]: 3.03e-05 s⁻¹
- kon [12]: 1.25e+06 M⁻¹ s⁻¹
- EC50 [13]: 0.079 nM

B4: h409A16 (antibody, human IgG4 S228P, kappa, V domains shown)
VH: QVQLVQSGVEVKKPGASVKVSCKASGYTFTNYYMYWVRQAPGQGLEWMGGINPSNGGTNFNEKFKNRVTLTTDSSTTTAYMELKSLQFDDTAVYYCARRDYRFDMGFDYWGQGTTVTVSS
VL: EIVLTQSPLSLPVTPGEPASISCRASKGVSTSGYSYLHWYLQKPGQSPQLLIYLASYLESGVPDRFSGSGSGTDFTLKISRVEAEDVGVYYCQHSRDLPLTFGQGTKLEIKR
notes: also called humanized IgG4 version of 09A antibody (409A-H + K09A-L-16)
- IC50 [17]: 0.696 nM
- IC50 [15]: < 1 nM
- EC50 [18]: 0.09 nM
- Kd [19]: 0.0273 nM
- koff [19]: 2.72e-05 s⁻¹
- kon [19]: 997000 M⁻¹ s⁻¹
- EC50 [20]: 0.063 nM
- IC50 [21]: 0.81 nM
- Kd [16]: < 0.12 nM

The next lines start with the values.

- Kd [1]: 0.02 nM
- binding result [2]: binds
- IC50 [3]: 0.0008 nM
- binding result [4]: no binding
- IC50 [5]: 0.0017 nM
- IC50 (read off the curve) [6]: ~2 nM
- EC50 [7]: 0.123 nM
- EC50 (read off the curve) [8]: ~0.1 nM
- IC50 [9]: 0.0009 nM
- IC50 [10]: < 1 nM
- IC50 (read off the curve) [11]: ~0.8 nM
- Kd [12]: 0.022 nM
- koff [12]: 3.6e-05 s⁻¹
- kon [12]: 1.64e+06 M⁻¹ s⁻¹
- EC50 [13]: 0.113 nM
- fold change in IFNgamma, SEB stimulated blood of patient A (prostate), 25 ug/mL hPD-1.09A vs SEB alone [14]: 1.9 fold
- fold change in IFNgamma, SEB stimulated blood of patient B (prostate), 25 ug/mL hPD-1.09A vs SEB alone [14]: 1.2 fold
- fold change in IFNgamma, SEB stimulated blood of patient C (prostate), 25 ug/mL hPD-1.09A vs SEB alone [14]: 2 fold
- fold change in IFNgamma, SEB stimulated blood of patient D (melanoma), 25 ug/mL hPD-1.09A vs SEB alone [14]: 1.5 fold
- fold change in IL-2, SEB stimulated blood of patient A (prostate), 25 ug/mL hPD-1.09A vs SEB alone [14]: 3.4 fold
- fold change in IL-2, SEB stimulated blood of patient B (prostate), 25 ug/mL hPD-1.09A vs SEB alone [14]: 2.1 fold
- fold change in IL-2, SEB stimulated blood of patient C (prostate), 25 ug/mL hPD-1.09A vs SEB alone [14]: 2 fold
- fold change in IL-2, SEB stimulated blood of patient D (melanoma), 25 ug/mL hPD-1.09A vs SEB alone [14]: 2 fold
- fold change in IL-5, SEB stimulated blood of patient A (prostate), 25 ug/mL hPD-1.09A vs SEB alone [14]: 0.7 fold
- fold change in IL-5, SEB stimulated blood of patient B (prostate), 25 ug/mL hPD-1.09A vs SEB alone [14]: 0.4 fold
- fold change in IL-5, SEB stimulated blood of patient C (prostate), 25 ug/mL hPD-1.09A vs SEB alone [14]: 0.9 fold
- fold change in IL-5, SEB stimulated blood of patient D (melanoma), 25 ug/mL hPD-1.09A vs SEB alone [14]: 0.4 fold
- fold change in IL-6, SEB stimulated blood of patient A (prostate), 25 ug/mL hPD-1.09A vs SEB alone [14]: 2.1 fold
- fold change in IL-6, SEB stimulated blood of patient B (prostate), 25 ug/mL hPD-1.09A vs SEB alone [14]: 2.2 fold
- fold change in IL-6, SEB stimulated blood of patient C (prostate), 25 ug/mL hPD-1.09A vs SEB alone [14]: 2.4 fold
- fold change in IL-6, SEB stimulated blood of patient D (melanoma), 25 ug/mL hPD-1.09A vs SEB alone [14]: 1.9 fold
- fold change in IL-13, SEB stimulated blood of patient A (prostate), 25 ug/mL hPD-1.09A vs SEB alone [14]: 0.8 fold
- fold change in IL-13, SEB stimulated blood of patient B (prostate), 25 ug/mL hPD-1.09A vs SEB alone [14]: 0.6 fold
- fold change in IL-13, SEB stimulated blood of patient C (prostate), 25 ug/mL hPD-1.09A vs SEB alone [14]: 1.1 fold
- fold change in IL-13, SEB stimulated blood of patient D (melanoma), 25 ug/mL hPD-1.09A vs SEB alone [14]: 0.5 fold
- fold change in IL-17, SEB stimulated blood of patient A (prostate), 25 ug/mL hPD-1.09A vs SEB alone [14]: 1.8 fold
- fold change in IL-17, SEB stimulated blood of patient B (prostate), 25 ug/mL hPD-1.09A vs SEB alone [14]: 2.6 fold
- fold change in IL-17, SEB stimulated blood of patient C (prostate), 25 ug/mL hPD-1.09A vs SEB alone [14]: 2.4 fold
- fold change in IL-17, SEB stimulated blood of patient D (melanoma), 25 ug/mL hPD-1.09A vs SEB alone [14]: 2 fold
- fold change in TNFalpha, SEB stimulated blood of patient A (prostate), 25 ug/mL hPD-1.09A vs SEB alone [14]: 2 fold
- fold change in TNFalpha, SEB stimulated blood of patient B (prostate), 25 ug/mL hPD-1.09A vs SEB alone [14]: 1.5 fold
- fold change in TNFalpha, SEB stimulated blood of patient C (prostate), 25 ug/mL hPD-1.09A vs SEB alone [14]: 2.4 fold
- fold change in TNFalpha, SEB stimulated blood of patient D (melanoma), 25 ug/mL hPD-1.09A vs SEB alone [14]: 1.9 fold
B1: hPD-1.09A (antibody, V domains shown)
VH: QVQLQQPGAELVKPGTSVKLSCKASGYTFTNYYMYWVKQRPGQGLEWIGGINPSNGGTNFNEKFKNKATLTVDSSSSTTYMQLSSLTSEDSAVYYCTRRDYRFDMGFDYWGQGTTLTVSS
VL: DIVLTQSPASLAVSLGQRAAISCRASKGVSTSGYSYLHWYQQKPGQSPKLLIYLASYLESGVPARFSGSGSGTDFTLNIHPVEEEDAATYYCQHSRDLPLTFGTGTKLELK

- IC50 [15]: < 1 nM
- Kd [16]: < 0.12 nM
B3: h409A11 (antibody, human IgG4 S228P, kappa, V domains shown)
VH: QVQLVQSGVEVKKPGASVKVSCKASGYTFTNYYMYWVRQAPGQGLEWMGGINPSNGGTNFNEKFKNRVTLTTDSSTTTAYMELKSLQFDDTAVYYCARRDYRFDMGFDYWGQGTTVTVSS
VL: EIVLTQSPATLSLSPGERATLSCRASKGVSTSGYSYLHWYQQKPGQAPRLLIYLASYLESGVPARFSGSGSGTDFTLTISSLEPEDFAVYYCQHSRDLPLTFGGGTKVEIKR
notes: also called humanized IgG4 version of 09A antibody (409A-H + K09A-L-11)

- IC50 [17]: 0.818 nM
- IC50 [15]: < 1 nM
- EC50 [18]: 0.088 nM
- Kd [19]: 0.191 nM
- koff [19]: 0.000191 s⁻¹
- kon [19]: 1e+06 M⁻¹ s⁻¹
- EC50 [20]: 0.083 nM
- IC50 [21]: 0.463 nM
B5: h409A17 (antibody, human IgG4 S228P, kappa, V domains shown)
VH: QVQLVQSGVEVKKPGASVKVSCKASGYTFTNYYMYWVRQAPGQGLEWMGGINPSNGGTNFNEKFKNRVTLTTDSSTTTAYMELKSLQFDDTAVYYCARRDYRFDMGFDYWGQGTTVTVSS
VL: DIVMTQTPLSLPVTPGEPASISCRASKGVSTSGYSYLHWYLQKPGQSPQLLIYLASYLESGVPDRFSGSGSGTAFTLKISRVEAEDVGLYYCQHSRDLPLTFGQGTKLEIKR
notes: also called humanized IgG4 version of 09A antibody (409A-H + K09A-L-17)
